In patent US20120064547A1 (PROBIODRUG, published 2012):
Where no end group is shown, it is not given here. Side-chain parts run from the residue outwards. [ ]: non-standard residue; d: D form. SMPH = maleimide crosslinker coupling C-terminal Cys to BSA; pGlu = O=C1CC[C@@H](C(=O)O)N1

How the values were obtained:
Aβ N3pE-40 peptide [1] = target: T1, Aβ N3pE-40 peptide (N-terminal Glu (position 3 of Aβ) cyclized to pyroglutamate); test: N3pE sandwich ELISA (4G8 capture, 6-1-6 detection), 3.125 pg/ml peptide
T1 construct: Synthetic peptide; also called AβpE3-40; amyloid β N3pE-40

Aβ 1-42 [2] = test: N3pE sandwich ELISA (4G8 capture, 6-1-6 detection), peptide at 100 pg/ml
Aβ pE11-40 [3] = target: T2, Aβ pE11-40 (N-terminal Glu (position 11 of Aβ) cyclized to pyroglutamate); test: as above
T2 construct: No entry of its own
T2 peptide: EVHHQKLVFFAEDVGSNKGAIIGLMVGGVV

Aβ N3pE-40 peptide [4] = target: T1, Aβ N3pE-40 peptide; test: Biacore, peptide on CM5 chip, hybridoma supernatants
N11pE-BSA = test: IgG ELISA, hybridoma supernatant on peptide-BSA coat
N11E-BSA = test: as above
isoDAE-BSA = test: as above
N3E-BSA = test: as above
[5] = target: T3, BSA-pGlu-6166 peptide (pGlu-FRHDSGC conjugated to bovine serum albumin); test: as above
T3 construct: also called N3pE-BSA
T3 peptide: [pGlu]FRHDSGC([SMPH-BSA])

[6] = target: T4, PepSpot peptide No. 7 FRHDSGYEVHHQK; test: PepSpot peptide membrane
T4 construct: Spotted on a PepSpot membrane; also called spot number 7
T4 peptide: FRHDSGYEVHHQK

[7] = target: T5, PepSpot peptide No. 5 EFRHDSGYEVHHQ; test: PepSpot peptide membrane
T5 construct: Spotted on a PepSpot membrane; also called spot number 5
T5 peptide: EFRHDSGYEVHHQ

[8] = target: T6, PepSpot peptide No. 6 pEFRHDSGYEVHHQ; test: PepSpot peptide membrane
T6 construct: Spotted on a PepSpot membrane; also called spot number 6; the specific Aβ N3pE-x spot
T6 peptide: [pGlu]FRHDSGYEVHHQ

Aβ N3pE-40 peptide [9] = target: T1, Aβ N3pE-40 peptide; test: DotBlot
Aβ 1-42 [10] = test: N3pE sandwich ELISA (4G8 capture, 6-1-6 detection), peptide at 25 pg/ml
Aβ pE11-40 [11] = target: T2, Aβ pE11-40; test: as above
Aβ 4-40 [12] = target: T7, Aβ 4-40; test: as above
T7 construct: No entry of its own

Aβ 1-42 [13] = test: N3pE sandwich ELISA (4G8 capture, 6-1-6 detection), peptide at 12.5 pg/ml
Aβ pE11-40 [14] = target: T2, Aβ pE11-40; test: as above
Aβ 4-40 [15] = target: T7, Aβ 4-40; test: as above
Aβ 1-42 [16] = test: N3pE sandwich ELISA (4G8 capture, 6-1-6 detection), peptide at 400 pg/ml
Aβ pE11-40 [17] = target: T2, Aβ pE11-40; test: as above
Aβ 4-40 [18] = target: T7, Aβ 4-40; test: as above
Aβ 1-42 [19] = test: N3pE sandwich ELISA (4G8 capture, 6-1-6 detection), peptide at 200 pg/ml
Aβ pE11-40 [20] = target: T2, Aβ pE11-40; test: as above
Aβ 4-40 [21] = target: T7, Aβ 4-40; test: as above
Aβ N3pE-40 peptide [22] = target: T1, Aβ N3pE-40 peptide; test: SPR Biacore 3000, AβpE3-40 on CM5 chip, antibody 1-100 nM, bivalent analyte model
Aβ 1-42 [23] = test: N3pE sandwich ELISA (4G8 capture, 6-1-6 detection), peptide at 800 pg/ml
Aβ pE11-40 [24] = target: T2, Aβ pE11-40; test: as above
Aβ 4-40 [25] = target: T7, Aβ 4-40; test: as above
Aβ 1-42 [26] = test: N3pE sandwich ELISA (4G8 capture, 6-1-6 detection), peptide at 50 pg/ml
Aβ pE11-40 [27] = target: T2, Aβ pE11-40; test: as above
Aβ 4-40 [28] = target: T7, Aβ 4-40; test: as above

B1: Aβ 6-1-6 (monoclonal antibody of hybridoma cell line 6-1-6, DSM ACC 2924) (antibody, V domains shown)
VH: EVQLQQSGPELVKPGASMKISCKASGYSFTGYTMNWVKQSHGKNLEWIGLINPYNGVTRYNQKFKGKATLIVDKSSSTAYMELLSLTSEDSAVYYCTREAKREWDETYWGQGTLVTVSA
VL: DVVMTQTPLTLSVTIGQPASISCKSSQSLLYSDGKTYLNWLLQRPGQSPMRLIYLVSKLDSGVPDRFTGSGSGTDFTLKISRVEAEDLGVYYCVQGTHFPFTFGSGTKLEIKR
notes: Mouse hybridoma IgG; The entries as printed begin with a leader and end with the first residues of the constant region; Heavy chain amplified with primer MHCG1, light chain with MKC; also called clone 6-1-6; N3pE antibody clone 6-1-6
Which results are given for B1?
signal-to-noise ratio at the LOQ (Aβ N3pE-40 peptide [1]): 1.3; absorbance (450 nm corrected by 540 nm) (Aβ 1-42 [2]): 0.047 absorbance; absorbance (450 nm corrected by 540 nm) (Aβ pE11-40 [3]): 0.048 absorbance; association, fold of clone 12-1 (Aβ N3pE-40 peptide [4]): ~5 fold; signal in ELISA (OD) (N11pE-BSA): 0.014 OD 405 nm; signal in ELISA (OD) (N11E-BSA): 0.007 OD 405 nm; signal in ELISA (OD) (isoDAE-BSA): 0.013 OD 405 nm; signal in ELISA (OD) (N3E-BSA): 0.125 OD 405 nm; signal in ELISA (OD) [5]: 1.38 OD 405 nm; binding result [6]: binds; binding result [7]: binds; binding result [8]: binds; fold sensitivity against clone 12-1 (Aβ N3pE-40 peptide [9]): 125 fold; absorbance (450 nm corrected by 540 nm) (Aβ 1-42 [10]): 0.048 absorbance; absorbance (450 nm corrected by 540 nm) (Aβ pE11-40 [11]): 0.048 absorbance; absorbance (450 nm corrected by 540 nm) (Aβ 4-40 [12]): 0.044 absorbance; absorbance (450 nm corrected by 540 nm) (Aβ 1-42 [13]): 0.043 absorbance; absorbance (450 nm corrected by 540 nm) (Aβ pE11-40 [14]): 0.046 absorbance; absorbance (450 nm corrected by 540 nm) (Aβ 4-40 [15]): 0.04 absorbance; absorbance (450 nm corrected by 540 nm) (Aβ 1-42 [16]): 0.048 absorbance; absorbance (450 nm corrected by 540 nm) (Aβ pE11-40 [17]): 0.044 absorbance; absorbance (450 nm corrected by 540 nm) (Aβ 4-40 [18]): 0.044 absorbance; absorbance (450 nm corrected by 540 nm) (Aβ 1-42 [19]): 0.048 absorbance; absorbance (450 nm corrected by 540 nm) (Aβ pE11-40 [20]): 0.048 absorbance; absorbance (450 nm corrected by 540 nm) (Aβ 4-40 [21]): 0.046 absorbance; Kd (Aβ N3pE-40 peptide [22]): 1.57 nM; koff (Aβ N3pE-40 peptide [22]): 0.000263 s⁻¹; kon (Aβ N3pE-40 peptide [22]): 167000 M⁻¹ s⁻¹; absorbance (450 nm corrected by 540 nm) (Aβ 1-42 [23]): 0.053 absorbance; absorbance (450 nm corrected by 540 nm) (Aβ pE11-40 [24]): 0.047 absorbance; absorbance (450 nm corrected by 540 nm) (Aβ 4-40 [25]): 0.055 absorbance; absorbance (450 nm corrected by 540 nm) (Aβ 1-42 [26]): 0.05 absorbance; absorbance (450 nm corrected by 540 nm) (Aβ pE11-40 [27]): 0.045 absorbance; absorbance (450 nm corrected by 540 nm) (Aβ 4-40 [28]): 0.044 absorbance
